Results from patent publication EP4796567A2 (Nepenthe Bioscience, LLC, dated 2026).
Numbering of substitutions follows the chain as printed.

T1: CD79 (UniProt P11912 33-143; P40259 29-159, limits assumed)
T1 construct: also called CD79 antigen; soluble biotinylated CD79 antigen
T1 sequence (looked up) 1: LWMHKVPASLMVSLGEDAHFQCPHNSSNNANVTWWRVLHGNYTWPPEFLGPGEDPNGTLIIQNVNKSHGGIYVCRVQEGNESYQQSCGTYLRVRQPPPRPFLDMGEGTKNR
T1 sequence (looked up) 2: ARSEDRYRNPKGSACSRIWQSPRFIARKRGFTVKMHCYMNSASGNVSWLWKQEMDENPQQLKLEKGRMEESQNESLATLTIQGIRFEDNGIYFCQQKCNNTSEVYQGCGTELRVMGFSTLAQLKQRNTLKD

B1: chimeric anti-CD79 antibody HcLc (antibody, V domains shown)
VH: QVQLQQSGPELVKPGASVKISCKASGYAFSYSWMNWVKQRPGKGLEWIGRIYPENGDTNYNGKFKGKVTLTADKSSSTAYMQLSSLTSEDSAVYFCARWVYGYPHFDYWGQGTTLTVSS
VL: not shown
notes: Mouse VH fused to human IgG2 CH1, CH2 and CH3 domains; mouse VL fused to a human kappa CL domain
B2: humanized anti-CD79 antibody H1L2 (antibody, V domains shown)
VH: QVQLVQSGAEVKKPGASVKVSCKASGYAFSYSWMNWVRQAPGQGLEWMGRIYPENGDTNYNGKFKGRVTMTRDTSISTAYMELSRLRSDDTAVYYCARWVYGYPHFDYWGQGTLVTVSS
VL: DVVMTQSPLSLPVTLGQPASISCKSSQSLLDSDGKTYLNWLQQRPGQSPRRLIYLVSKLDSGVPDRFSGSGSGTDFTLKISRVEAEDVGVYYCWQGTHFPFTFGGGTKVEIK
notes: also called LB495/PRI47; PRI43/PRI47
B3: humanized anti-CD79 antibody H1L3 (antibody, V domains shown)
VH: B2 VH
VL: B2 VL with R50K
B4: humanized anti-CD79 antibody H3L2 (antibody, V domains shown)
VH: B2 VH with M48I, M70L, R72A, T74K
VL: B2 VL
B5: engineered anti-CD79 antibody LB630/519 (antibody, V domains shown)
VH: B2 VH with N55S, Y103L
VL: B2 VL with F99L
notes: First NG motif of VH CDR2 engineered to NS; Produced in 293 cells by transient transfection; also called LB630/LB519
B6: affinity matured anti-CD79 antibody LB495/521 (antibody, V domains shown)
VH: B2 VH
VL: B2 VL with F99V
notes: Full length IgG produced from 293 cells; also called LB495/LB521
B7: affinity matured anti-CD79 antibody LB517/520 (antibody, V domains shown)
VH: B2 VH with Y103L
VL: B2 VL with F99R
notes: Full length IgG produced from 293 cells; also called LB517/LB520
B8: humanized anti-CD79 antibody H2L3 (antibody, V domains shown)
VH: B2 VH with R72A
VL: B2 VL with R50K
B9: engineered anti-CD79 antibody LB632/519 (antibody, V domains shown)
VH: B2 VH with N55S, N61A, Y103L
VL: B2 VL with F99L
notes: Both NG motifs of VH CDR2 engineered; Produced in 293 cells by transient transfection; also called LB632/LB519
B10: humanized anti-CD79 antibody H3L3 (antibody, V domains shown)
VH: B2 VH with M48I, M70L, R72A, T74K
VL: B2 VL with R50K
B11: humanized anti-CD79 antibody H2L2 (antibody, V domains shown)
VH: B2 VH with R72A
VL: B2 VL
B12: engineered anti-CD79 antibody LB631/519 (antibody, V domains shown)
VH: B2 VH with N61A, Y103L
VL: B2 VL with F99L
notes: Second NG motif of VH CDR2 engineered to NA; Produced in 293 cells by transient transfection; also called LB631/LB519
B13: humanized anti-CD79 antibody H3L1 (antibody, V domains shown)
VH: B2 VH with M48I, M70L, R72A, T74K
VL: B2 VL with L41F
B14: humanized anti-CD79 antibody H2L1 (antibody, V domains shown)
VH: B2 VH with R72A
VL: B2 VL with L41F
B15: affinity matured anti-CD79 antibody LB517/521 (antibody, V domains shown)
VH: B2 VH with Y103L
VL: B2 VL with F99V
notes: Full length IgG produced from 293 cells; also called LB517/LB521
B16: affinity matured anti-CD79 antibody LB495/519 (antibody, V domains shown)
VH: B2 VH
VL: B2 VL with F99L
notes: Full length IgG produced from 293 cells; also called LB495/LB519
B17: affinity matured anti-CD79 antibody LB495/518 (antibody, V domains shown)
VH: B2 VH
VL: B2 VL with F99I
notes: Full length IgG produced from 293 cells; also called LB495/LB518
B18: humanized anti-CD79 antibody H1L1 (antibody, V domains shown)
VH: B2 VH
VL: B2 VL with L41F
B19: humanized anti-CD79 antibody LB517/LB519 (antibody, V domains shown)
VH: B2 VH with Y103L
VL: B2 VL with F99L
notes: Full length IgG produced from 293 cells; also called hCur14 FALA
B20: affinity matured anti-CD79 antibody LB517/518 (antibody, V domains shown)
VH: B2 VH with Y103L
VL: B2 VL with F99I
notes: Full length IgG produced from 293 cells; also called LB517/LB518
B21: affinity matured anti-CD79 antibody LB495/520 (antibody, V domains shown)
VH: B2 VH
VL: B2 VL with F99R
notes: Full length IgG produced from 293 cells; also called LB495/LB520
B22: affinity matured anti-CD79 antibody LB517/PRI47 (antibody, V domains shown)
VH: B2 VH with Y103L
VL: B2 VL
notes: Full length IgG produced from 293 cells

Columns and labels:
CD79 [1] = molecular target: T1, CD79; assay: binding kinetics to CD79; method not named (antibody is the 'Loading Sample')
CD79 [2] = molecular target: T1, CD79; assay: antigen binding kinetics; method not named (antibody is the 'Loading Sample')
CD79 [3] = molecular target: T1, CD79; assay: binding kinetics of full length IgG to CD79; method not named (antibody is the 'Loading Sample')

Row | Binder | Kd (CD79 [1]) | koff (CD79 [1]) | kon (CD79 [1]) | Kd (CD79 [2]) | koff (CD79 [2]) | kon (CD79 [2]) | Kd (CD79 [3]) | koff (CD79 [3]) | kon (CD79 [3])
1 | B1 | 60 nM | 0.0056 s⁻¹ | 93000 M⁻¹ s⁻¹ |  |  |  |  |  | 
2 | B2 | 45 nM | 0.0041 s⁻¹ | 91000 M⁻¹ s⁻¹ | 9.22 nM | 0.000384 s⁻¹ | 41700 M⁻¹ s⁻¹ | 5.1 nM | 0.000429 s⁻¹ | 84100 M⁻¹ s⁻¹
3 | B3 | 49 nM | 0.004 s⁻¹ | 82000 M⁻¹ s⁻¹ |  |  |  |  |  | 
4 | B4 | 140 nM | 0.0086 s⁻¹ | 61000 M⁻¹ s⁻¹ |  |  |  |  |  | 
5 | B5 |  |  |  | < 0.001 nM | < 1e-07 s⁻¹ | 55800 M⁻¹ s⁻¹ |  |  | 
6 | B6 |  |  |  |  |  |  | 3.65 nM | 0.000362 s⁻¹ | 99100 M⁻¹ s⁻¹
7 | B7 |  |  |  |  |  |  | 2.4 nM | 0.000234 s⁻¹ | 97800 M⁻¹ s⁻¹
8 | B8 | 61 nM | 0.0051 s⁻¹ | 84000 M⁻¹ s⁻¹ |  |  |  |  |  | 
9 | B9 |  |  |  | 0.837 nM | 5.11e-05 s⁻¹ | 61000 M⁻¹ s⁻¹ |  |  | 
10 | B10 | 130 nM | 0.011 s⁻¹ | 79000 M⁻¹ s⁻¹ |  |  |  |  |  | 
11 | B11 | 46 nM | 0.0046 s⁻¹ | 100000 M⁻¹ s⁻¹ |  |  |  |  |  | 
12 | B12 |  |  |  | 1.04 nM | 6.1e-05 s⁻¹ | 58600 M⁻¹ s⁻¹ |  |  | 
13 | B13 | 290 nM | 0.013 s⁻¹ | 43000 M⁻¹ s⁻¹ |  |  |  |  |  | 
14 | B14 | 90 nM | 0.0071 s⁻¹ | 79000 M⁻¹ s⁻¹ |  |  |  |  |  | 
15 | B15 |  |  |  |  |  |  | 2.3 nM | 0.000201 s⁻¹ | 87500 M⁻¹ s⁻¹
16 | B16 |  |  |  |  |  |  | 3.14 nM | 0.000252 s⁻¹ | 80300 M⁻¹ s⁻¹
17 | B17 |  |  |  |  |  |  | 3.64 nM | 0.000332 s⁻¹ | 91200 M⁻¹ s⁻¹
18 | B18 | 59 nM | 0.0054 s⁻¹ | 92000 M⁻¹ s⁻¹ |  |  |  |  |  | 
19 | B19 |  |  |  | 0.706 nM | 4.14e-05 s⁻¹ | 58700 M⁻¹ s⁻¹ | 2 nM | 0.000159 s⁻¹ | 79700 M⁻¹ s⁻¹
20 | B20 |  |  |  |  |  |  | 2.24 nM | 0.000199 s⁻¹ | 88500 M⁻¹ s⁻¹
21 | B21 |  |  |  |  |  |  | 3.76 nM | 0.000374 s⁻¹ | 99600 M⁻¹ s⁻¹
22 | B22 |  |  |  |  |  |  | 3.55 nM | 0.000311 s⁻¹ | 87500 M⁻¹ s⁻¹
